# B1: FGF10: fibroblast growth factor 10, growth factor in the cPP culture medium (50 ng/mL) (protein, UniProt O15520 38-208, looked up)
# Fibroblast growth factor 10: QALGQDMVSPEATNSSSSSFSSPSSAGRHVRSYNHLQGDVRWRKLFSFTKYFLKIEKNGKVSGTKKENCPYSILEITSVEIGVVAVKAINSNYYLAMNKKGKLYGSKEFNNDCKLKERIEENGYNTYASFNWQHNGRQMYVALNGKGAPRRGQKTRRKNTSAHFLPMVVHS
# Test system: cPP cells
# Experiment: Omission of individual components from complete cPP culture medium on 3T3-J2 feeders (phase contrast, qRT-PCR)
# Assay type: cell-based, human
# Description: Gentle cell dissociation reagent (STEMCELL Technologies, 07174) was used to passage cPP cells as aggregates that were then seeded at a 1:6 split ratio onto a layer of 3T3-J2 feeders (0.5×10^6 to 1×10^6 cells/cm^2) in medium composed of advanced DMEM/F12 (Thermo Fisher Scientific, 21634010), 2 mM L-glutamine (Thermo Fisher Scientific, 25030), 100 U/mL penicillin/streptomycin (Thermo Fisher Scientific, 15140122), 1× N2 supplement (Thermo Fisher Scientific, 17502-048), 1× B27 supplement (Thermo Fisher Scientific, 17504-044), 30 nM dexamethasone (STEMCELL Technologies, 72092), 50 ng/mL EGF (R&D Systems, 236-EG-200), 50 ng/mL FGF10 (Source Bioscience, ABC144), 3 μM RA (Sigma, R2625), 10 μM SB431542 (Calbiochem, 616464), and 1 μM DAPT (Sigma, D5942). If plating single cPP cells, complete medium was supplemented with 10 μM Y27632 for the first 48 hr (Sigma, Y0503). Medium was completely replenished every 2-3 days.
# RNA was isolated from samples using an RNeasy mini kit (Qiagen, cat # 74104) and reverse transcribed to generate cDNA using a high-capacity reverse transcription kit and random hexamer primers (Applied Biosystems, 4368814,1 μg RNA per 20 μL reaction). Quantitative RT-PCR was carried out using SYBR Select Mastermix (Applied Biosystems, 4472908). Data were analyzed using the ΔΔCT method, and normalized to expression of the housekeeping gene TBP in each sample. […]
molecule,measurement,setting,value
B1,"Effect of removing the component on cPP expansion, colony size and morphology","component individually omitted from complete medium, cPP cells cultured 6 days on 3T3-J2 feeders",did not significantly affect colony size or morphology in the short term
same,Effect of removing the component on viability,component removed from the culture media over multiple passages,noticeable loss of viability
